Data reported in patent US20200277375A1 (ULTRAHUMAN FOUR, published 2020).

Assays:
[1] = molecular target: T1, human CD47 on cells (human CD47-transfected CHO-K1; HL60) (human, UniProt Q08722 19-323); test: flow cytometry, human CD47-transfected CHO-K1, FIG. 6
T1 construct: whole, on cells; also called human CD47+ cells; human CD47+HL60 cells
Description: (§1) FIG. 6A-FIG. 6C. Flow cytometric binding to human and cyno CD47+CHO-K1 cells. Commercial anti-CD47 antibody MS1991, human IgG1 (“I IgG1”) and IgG4 (“I IgG4”) Isotype controls, lead library-derived IgGs in both IgG1null (“IgG1N”) and IgG4(S228P) formats were examined for specific binding on cyno-transfected CHO-K1 cells (FIG. 6A), human-transfected CHO-K1 cells (FIG. 6B), and wild type (wt, i.e. untransfected) CHO-K1 cells (FIG. 6C). IgGs were tested at concentrations ranging from 24-100,000 ng/ml. Concentration-dependent binding was observed against both human and cyno cell lines for all CD47-specific antibodies but not Isotype controls.
(§2) Antibodies to CD47 were analysed for concentration-dependent binding at the cell surface via flow cytometry. CHO-K1 cells were stably transfected with either human, mouse or cyno CD47 full-length cDNAs. Anti-CD47 IgGs mVH/mVL, VH-A1/VL-B1, A-D5, G-B6, F-E7 and D-H3, and an isotype control IgG1 were then all tested in IgG1null and IgG4(S228P) formats, alongside a commercial mouse anti-human CD47 monoclonal MS1991, over a concentration range of 100,000-24 ng/ml for binding to human, cyno or wild type control (‘wt’, i.e. untransfected) CHO-K1.

[2] = molecular target: T2, cynomolgus monkey CD47 on transfected CHO-K1 cells (cynomolgus monkey, UniProt A0A5F8AK49 19-323 (rhesus entry)); test: flow cytometry, cyno CD47-transfected CHO-K1, FIG. 6
T2 construct: whole, on cells; also called cyno CD47+ cells
Description: as §1, §2

mouse CD47-Fc = molecular target: T3, mouse CD47-Fc (mouse, UniProt Q61735 19-140, limits assumed); test: direct titration ELISA, FIG. 11C
T3 construct: Recombinant CD47-Fc; also called mCD47-Fc; mCD37-Fc [sic]; not shown: Fc part
T3 sequence (looked up): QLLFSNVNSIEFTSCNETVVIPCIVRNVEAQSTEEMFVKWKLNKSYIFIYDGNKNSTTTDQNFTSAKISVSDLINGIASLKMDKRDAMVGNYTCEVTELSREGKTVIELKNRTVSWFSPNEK
Description: (§3) FIG. 11A-FIG. 11C. Direct titration ELISA for A-D5.4-derived designer IgGs binding to human, mouse and cyno CD47-Fc proteins. Chimeric anti-CD47 (mVH/mVL), designer A-D5.4-derived clones in human IgG1 null format were titrated (in μg/ml) in a direct binding ELISA against human (FIG. 11A), cyno (FIG. 11B) and mouse (FIG. 11C) CD47-Fc proteins. […] In the figure legends, “IgG1NI” refers to IgG1 null isotype.
(§4) To coat Greiner Bio-One High bind ELISA plates, target proteins were diluted to 1 μg/ml in carbonate buffer and added at 100 μl per well, at 4° C., o/n. Coated plates were washed 3× with PBS pH7.4, blocked with 1% BSA in PBS (380 μl/well) for 1 hr at RT, then washed 3× with PBS-Tween 20 (PBST). CD47 antibodies (100 μl/well; diluted in PBST) were then added and then incubated 1 hr at RT. Plates were then washed 3× with PBST and goat anti-human kappa chain-HRP added (100 μl/well) at RT, for 1 hr. Plates were then washed 3× with PBST and twice with PBS before the addition of 100 μl TMB per well. Reactions were stopped by adding 100 μl 2M H₂SO₄/well and OD was read on a plate reader at 450 nm.

human CD47-Fc [3] = molecular target: T4, human CD47-Fc (human, UniProt Q08722 19-139); test: direct titration ELISA, FIG. 11A
T4 construct: Recombinant CD47-Fc; also called hCD47-Fc; not shown: Fc part
Description: as §3, §4

human CD47-Fc [4] = molecular target: T4, human CD47-Fc; test: direct titration ELISA, FIG. 9A
Description: FIG. 9A-FIG. 9C. Direct titration ELISA for designer IgGs binding to human, mouse and cyno CD47-Fc proteins. Chimeric anti-CD47 (mVH/mVL), designer A-D5-derived clones in human IgG1null format were titrated (in μg/ml) in a direct binding ELISA against human (FIG. 9A), cyno (FIG. 9B) and mouse (FIG. 9C) CD47-Fc proteins. […] In the figure legend, “IgG1NI” refers to IgG1 null isotype.
as §4

| Binder | maximum MFI, fold over untransfected CHO-K1 [1] [fold] | maximum MFI, fold over untransfected CHO-K1 [2] [fold] | binding result (human CD47-Fc [4]) | further results |
| --- | --- | --- | --- | --- |
| G-B6 in human IgG4(S228P) format (antibody, V domains shown, IgG4(S228P), kappa; also called G-B6 IgG4) VH: EVQLVQSGAEVKKPGESLKISCKGSGYSFTNYYIFWVRQMPGKGLEWIGDINPVNGDTNFSPSFQGQVTISADKSISTAYLQWSSLKASDTAMYYCARGGYTMDKWGQGTLVTVSS VL: DIVMTQSPLSLPVTPGEPASISCRSSQSLVHSNGYTYLHWYLQKPGQSPQLLIYKGSYRASGVPDRFSGSGSGTDFTLKISRVEAEDVGVYYCSQNTQTPRTFGQGTKVEIK | > 10 | > 10 | – | – |
| F-E7 in human IgG4(S228P) format (antibody, V domains shown, IgG4(S228P), kappa; also called F-E7 IgG4) VH: EVQLVQSGAEVKKPGESLKISCKGSGYSFTNYYIFWVRQMPGKGLEWMGIINPVNGDTNYNPSFQGQVTISADKSISTAYLQWSSLKASDTAMYYCARGGYTMGKWGQGTLVTVSS VL: DIVMTQSPLSLPVTPGEPASISCRSSQSLVHSNGNTYLDWYLQKPGQSPQLLIYKGSYRFSGVPDRFSGSGSGTDFTLKISRVEAEDVGVYYCSQATHTPRTFGQGTKVEIK | > 10 | > 10 | – | – |
| A-D5.11 in human IgG1null format (antibody, V domains shown, Designer clone from A-D5.4; IgG1null) VH: EVQLVQSGAEVKKPGESLKISCKGSGYSFTNYYIFWVRQMPGKGLEWMGIINPVDGDTNYNPSFQGQVTISADKSISTAYLQWSSLKASDTAMYYCARGGYTMDRWGQGTLVTVSS VL: DIVMTQSPLSLPVTPGEPASISCRSSQSLLHSNGYNYLHWYLQKPGQSPQLLIYKVSNRLSGVPDRFSGSGSGTDFTLKISRVEAEDVGVYYCFQNTHTPRTFGQGTKVEIK | – | – | – | binding result (mouse CD47-Fc): binds; binding result (human CD47-Fc [3]): binds |
| A-D5.9 in human IgG1null format (antibody, V domains shown, Designer clone from A-D5; IgG1null) VH: EVQLVQSGAEVKKPGESLKISCKGSGYTFTNYYIFWVRQMPGKGLEWMGIINPVDGDTNYNPSFQGQVTISADKSISTAYLQWSSLKASDTAMYYCARGGYTMDRWGQGTLVTVSS VL: DIVMTQSPLSLPVTPGEPASISCRSSQSLLHSNGYTYLHWYLQKPGQSPQLLIYKVSNRLSGVPDRFSGSGSGTDFTLKISRVEAEDVGVYYCFQQTHTPRTFGQGTKVEIK | – | – | binds | – |
| A-D5.1 in human IgG1null format (antibody, V domains shown, Designer clone from A-D5; IgG1null) VH: EVQLVQSGAEVKKPGESLKISCKGSGYSFTNYYIFWVRQMPGKGLEWMGIINPVDGDTNYNPSFQGQVTISADKSISTAYLQWSSLKASDTAMYYCARGGYTMDRWGQGTLVTVSS VL: DIVMTQSPLSLPVTPGEPASISCRSSQSLLHSNGYTYLHWYLQKPGQSPQLLIYKVSNRLSGVPDRFSGSGSGTDFTLKISRVEAEDVGVYYCFQNTHTPRTFGQGTKVEIK | – | – | binds | – |
| D-H3 in human IgG4(S228P) format (antibody, V domains shown, IgG4(S228P), kappa; also called D-H3 IgG4) VH: EVQLVQSGAEVKKPGESLKISCKGSGYSFTNYYIFWVRQMPGKGLEWMGDINPVNGDTNYSPSFQGQVTISADKSISTAYLQWSSLKASDTAMYYCARGGYTPDYWGQGTLVTVSS VL: DIVMTQSPLSLPVTPGEPASISCRSSQSLLHSNGYNYLHWYLQKPGQSPQLLIYKGSNRFSGVPDRFSGSGSGTDFTLKISRVEAEDVGVYYCSQNLHVPRTFGQGTKVEIK | > 10 | > 10 | – | – |
| A-D5.3 in human IgG1null format (antibody, V domains shown, Designer clone from A-D5; IgG1null) VH: EVQLVQSGAEVKKPGESLKISCKGSGYSFTNYYIFWVRQMPGKGLEWMGIINPVDGDTRYSPSFQGQVTISADKSISTAYLQWSSLKASDTAMYYCARGGYTMDRWGQGTLVTVSS VL: DIVMTQSPLSLPVTPGEPASISCRSSQSLLHSNGYTYLHWYLQKPGQSPQLLIYKVSNRLSGVPDRFSGSGSGTDFTLKISRVEAEDVGVYYCFQNTHTPRTFGQGTKVEIK | – | – | binds | – |
| VH-A1/VL-B1 in human IgG4(S228P) format (antibody, V domains shown, IgG4(S228P), kappa; also called VH-A1/VL-B1 IgG4) VH: EVQLVQSGAEVKKPGESLKISCKGSGYSFTNYYIFWVRQMPGKGLEWMGIINPVDGDTRYSPSFQGQVTISADKSISTAYLQWSSLKASDTAMYYCARGGFTMDYWGQGTLVTVSS VL: not shown | > 10 | > 10 | – | – |
| A-D5 in human IgG4(S228P) format (antibody, V domains shown, IgG4(S228P), kappa; also called IgG4 A-D5) VH: EVQLVQSGAEVKKPGESLKISCKGSGYTFTNYYIFWVRQMPGKGLEWMGIINPVDGDTNYNPSFQGQVTISADKSISTAYLQWSSLKASDTAMYYCARGGYTMDRWGQGTLVTVSS VL: DIVMTQSPLSLPVTPGEPASISCRSSQSLLHSNGYTYLHWYLQKPGQSPQLLIYKVSNRLSGVPDRFSGSGSGTDFTLKISRVEAEDVGVYYCFQNTHTPRTFGQGTKVEIK | > 10 | > 10 | – | – |
| A-D5.10 in human IgG1null format (antibody, V domains shown, Designer clone from A-D5; IgG1null) VH: EVQLVQSGAEVKKPGESLKISCKGSGYTFTNYYIFWVRQMPGKGLEWMGIINPVDGDTNYNPSFQGQVTISADKSISTAYLQWSSLKASDTAMYYCARGGYTMDRWGQGTLVTVSS VL: DIVMTQSPLSLPVTPGEPASISCRSSQSLLHSQGYTYLHWYLQKPGQSPQLLIYKVSNRLSGVPDRFSGSGSGTDFTLKISRVEAEDVGVYYCFQQTHTPRTFGQGTKVEIK | – | – | binds | – |
| A-D5.5 in human IgG1null format (antibody, V domains shown, Designer clone from A-D5; IgG1null) VH: EVQLVQSGAEVKKPGESLKISCKGSGYTFTNYYIFWVRQMPGKGLEWMGIINPVDGDTNYNPSFQGQVTISADKSISTAYLQWSSLKASDTAMYYCARGGYTMDRWGQGTLVTVSS VL: DIVMTQSPLSLPVTPGEPASISCRSSQSLLHSNGYNYLHWYLQKPGQSPQLLIYKGSNRLSGVPDRFSGSGSGTDFTLKISRVEAEDVGVYYCFQNTHTPRTFGQGTKVEIK | – | – | binds | – |
| A-D5.6 in human IgG1null format (antibody, V domains shown, Designer clone from A-D5; IgG1null) VH: EVQLVQSGAEVKKPGESLKISCKGSGYTFTNYYIFWVRQMPGKGLEWMGIINPVDGDTNYNPSFQGQVTISADKSISTAYLQWSSLKASDTAMYYCARGGYTMDRWGQGTLVTVSS VL: DIVMTQSPLSLPVTPGEPASISCRSSQSLLHSNGYNYLHWYLQKPGQSPQLLIYKGSNRLSGVPDRFSGSGSGTDFTLKISRVEAEDVGVYYCFQNTQTPRTFGQGTKVEIK | – | – | binds | – |
| mVH/mVL (chimeric VxP037) in human IgG1null format (antibody, V domains shown, Murine v-domains on human IgG1null (IgG1 L234A/L235A/G237A), kappa; also called VP037; Chimeric anti-CD47) VH: EVQLQQFGAELVKPGASMKLSCKASGYTFTNYYVFWVKQRPGQGLEWIGDINPVNGDTNFNEKFKNKATLTVDKSSTTTYLQLSSLTSEDSAVYYCTRGGYTMDYWGQGTLVTVSS VL: DVVMTQTPLSLSVSLGDQASISCRSSQSLVHSNGNTYLHWYLQKPGQSPKLLIYKVSYRFSGVPDRFSGSGSGTDFTLKISRVEAEDLGVYFCSQNTHVPRTFGQGTKVEIK | > 10 | > 10 | – | binding result (mouse CD47-Fc): binds |
| mVH/mVL (chimeric VxP037) in human IgG4(S228P) format (antibody, V domains shown, IgG4 with S228P; also called mVH/mVL IgG4) VH: EVQLQQFGAELVKPGASMKLSCKASGYTFTNYYVFWVKQRPGQGLEWIGDINPVNGDTNFNEKFKNKATLTVDKSSTTTYLQLSSLTSEDSAVYYCTRGGYTMDYWGQGTLVTVSS VL: DVVMTQTPLSLSVSLGDQASISCRSSQSLVHSNGNTYLHWYLQKPGQSPKLLIYKVSYRFSGVPDRFSGSGSGTDFTLKISRVEAEDLGVYFCSQNTHVPRTFGQGTKVEIK | > 10 | > 10 | – | – |
